Reference: US20220290101A1

B1: 1245_P01_E07 (scFv) (scFv)
scFv: QVQLVESGGGLVKPGGSLRLSCAASGFTFSDYYMSWIRQAPGKGLEWVSYISSSGSTIYYADSVKGRFTISRDNAKNSLYLQMNSLRAEDTAVYYCARVDYADAFDIWGQGTLVTVSSGGGGSGGGGSGGGASDIQMTQSPSSLSASVGDRVTIACRAGQSIGTYLNWYQQKPGKAPKLLIYVASSLQSGVPSRFSGSGSGTEFTLTISSLQPEDFATYYCQQSYSTLLTFGRGTKVEIK
B2: 1245_P01_G09 (scFv) (scFv)
scFv: QVQLQQSGPGLVKPSQTLSLTCAISGDSVSSNSAAWNWIRQSPSRGLEWLGRTYYGSKWYNEYALSVKSRIIINPDTSKNQFSLQLNSVTPEDTAVYYCARDYYYSMDVWGQGTLVTVSSGGGGSGGGGSGGGASDIVMTQSPSTLSASIGDRVTITCRAGQSISTWLAWYQQKPGKAPKLLIYDASSLESGVPLRFSGSGSGTEFTLAISSLQPDDFATYYCQQSYSTPVTFGQGTKVEIK
B3: 1251_P02_G10 (scFv) (scFv)
scFv: EVQLVESGGGLVQPGGSLRLSCAASGFTFSDYYMSWIRQAPGKGLEWVSYISSSGSTIYYADSVKGRFTISRDNAKNSLYLQMNSLRAEDTAVYYCARHSWNDAFDIWGRGTLVTVSSGGGGSGGGGSGGGASDIQMTQSPSSLSASVGDRVTITCRASQSISSHLNWYQQKPGKAPKLLIYAASSLQSGVPSRFSASGSGTDFTLTISSLQPEDFATYYCQQSYSTLLTFGGGTKVEIK
B4: 1252_P01_C08 (scFv) (scFv)
scFv: EVQLLESGGGLVQPGRSLRLSCAASGFTVSSNYMSWVRQAPGKGLEWVSVIYSGGSTYYADSVKGRFTISRDNSKNTLYLQMNSLRAEDTAVYYCASPIELGAFDIWGQGTLVTVSSGGGGSGGGGSGGGASSYELTQPPSVSVAPGKTARITCGGNNIGSQSVHWYQQKPGQAPMLVIYYDSDRPSGIPERFSGSNSGNTATLTISRVEAGDEADYYCQVWDSSSDHVVFGGGTKLTVL
B5: 1245_P02_G04 (scFv) (scFv)
scFv: QVQLQQSGPGLVKPSQTLSLTCAISGDSVSSKSAAWNWIRQSPSRGLEWLGRTYYRSKWSTDYAASVKSRITINPDTSKNQLSLQLNSVTPEDTAVYYCARTWSGYVDVWGQGTLVTVSSGGGGSGGGGSGGGASDIQMTQSPPALSASVGDRVTITCRASQDINDWLAWYQHKPGKAPKLLIYDASSLESGVPSRFSGSGSGTEFTLTISSLQPDDFATYYCQQSYSTPQVTFGQGTRLEIK
B6: 1251_P02_C05 (scFv) (scFv)
scFv: EVQLLESGGGLVQPGGSLRLSCAASGFTFSSYAMSWVRQAPGKGLEWVSAISGGGGTTYSSDSVKGRFTISRDNSKNTLYLQMNSLRAEDTAVYYCARDSGVAFDIWGQGTLVTVSSGGGGSGGGGSGGGASDIQMTQSPSFLSASVGDRVTITCRASQNIRTWLAWYQQKPGRAPKLLIYDASSLESGVPSRFSGSGSGTDFTLTISSLQPEDFATYYCQQFKRYPPTFGLGTKVEIK
B7: 1141_P01_E01 (scFv) (scFv)
scFv: QVQLVQSGAEVKKPGESLKISCKGSGYSFTSYWIGWVRQMPGKGLEWMGIIYPGDSDTRYSPSFQGQVTISADKSISTAYLQWSSLKASDTAMYYCARHQVDTRTADYWGQGTLVTVSSGGGGSGGGGSGGGASQSALTQPASVSGSPGQSVTISCTGTRSDVGGYNYVSWYQHHPGKAPKLMIYEVSNRPSGVSNRFSGSKSGNTASLTISGLQAEDEADYYCSSYTSTSTLVFGGGTKLTVL
B8: 1139_P01_E04 (scFv) (scFv)
scFv: QVQLQQSGPGLVKPSQTLSLTCAISGDSVSSNSAAWNWIRQSPSRGLEWLGRTYYRSKWYNDYAVSVRSRITINPDTSKNQFSLQLNSVTPEDTAVYYCARSWNDAFDIWGQGTTVTVSSGGGGSGGGGSGGGASDIVMTQSPSTLSASIGDRVTITCRAGQSISTWLAWYQQKPGKAPKLLIYDASSLESGVPLRFSGSGSGTDFTLTISSLQPEDFATYYCQQSYSTPLTFGGGTKVEIK
B9: 1245_P02_F07 (scFv) (scFv)
scFv: QVQLQQSGPGLVKPSQTLSLTCVISGDSVSSNSAAWNWIRQSPSRGLEWLGRTYYRSKWYNDYAVSVKSRITINPDTSKNQFSLQLNSVTPEDTAVYYCARDYYYSMDVWGQGTMVTVSSGGGGSGGGGSGGGASDIQMTQSPSTLSASVGDRVTITCRASQSISSWLAWYQQKPGKAPKLLIYDASSLESGVPLRFSGSGSGTEFTLTISSLQPDDFATYYCQQSHSHPPTFGPGTKVDIK

Molecular target: L1 (DV1-GV4) soluble heterodimeric γδ TCR antigen, leucine zipper (LZ) format (human)
Assay: DELFIA affinity ranking with 100 nM biotinylated L1

L1 (DV1-GV4) soluble heterodimeric γδ TCR antigen, leucine zipper (LZ) format (human), sequence (main, as listed by the source): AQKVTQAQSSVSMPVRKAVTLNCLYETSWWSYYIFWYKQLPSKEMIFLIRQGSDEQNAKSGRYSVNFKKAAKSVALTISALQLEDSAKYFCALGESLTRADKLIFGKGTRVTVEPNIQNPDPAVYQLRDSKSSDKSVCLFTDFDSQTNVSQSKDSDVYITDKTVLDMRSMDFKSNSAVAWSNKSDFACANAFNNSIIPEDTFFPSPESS

100 nM L1 (DELFIA signal) (fluorescence units) | Binder
163000 | B1
18400 | B2
17100 | B3
1980 | B4
5900 | B5
65300 | B6
137000 | B7
23800 | B8
10400 | B9
